11 molecules from article PMC11574045, “A cofactor-induced repressive type of transcription factor condensation can be induced by synthetic peptides to suppress tumorigenesis” (The EMBO Journal, 2024) can be followed below.

This test concerns HEK293FT cells transfected with TF library. Description: Screening of TF condensates based on fluorescent puncta. The format is cell-based. Particulars: Figure 1B numerical data; TF library screen, one value per transcriptional factor. In a few lines:
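HEK293FT, PEI transfection of TF library, 60 h; ±glucose 12 h; 4% PFA fix, 0.05% Triton X-100 permeabilization, 5% BSA block; anti-Flag/anti-GAL4 overnight at 4 °C, Alexa 488 secondary 1 h; high-content imaging, 50 fields/well.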

B1: GABPB1 (protein, UniProt Q06547 2-395, looked up)
GA-binding protein subunit …: SLVDLGKKLLEAARAGQDDEVRILMANGAPFTTDWLGTSPLHLAAQYGHYSTTEVLLRAGVSRDARTKVDRTPLHMAASEGHASIVEVLLKHGADVNAKDMLKMTALHWATEHNHQEVVELLIKYGADVHTQSKFCKTAFDISIDNGNEDLAEILQIAMQNQINTNPESPDTVTIHAATPQFIIGPGGVVNLTGLVSSENSSKATDETGVSAVQFGNSSTSVLATLAALAEASAPLSNSSETPVVATEEVVTAESVDGAIQQVVSSGGQQVITIVTDGIQLGNLHSIPTSGIGQPIIVTMPDGQQVLTVPATDIAEETVISEEPPAKRQCIEIIENRVESAEIEEREALQKQLDEANREAQKYRQQLLKKEQEAEAYRQKLEAMTRLQTNKEAV
Regarding B1, the “Z score of condensed fraction” value is -0.05729.

B2: FOXR1 (protein, UniProt Q6PIV2 1-292, looked up)
Forkhead box protein R1: MGNELFLAFTTSHLPLAEQKLARYKLRIVKPPKLPLEKKPNPDKDGPDYEPNLWMWVNPNIVYPPGKLEVSGRRKREDLTSTLPSSQPPQKEEDASCSEAAGVESLSQSSSKRSPPRKRFAFSPSTWELTEEEEAEDQEDSSSMALPSPHKRAPLQSRRLRQASSQAGRLWSRPPLNYFHLIALALRNSSPCGLNVQQIYSFTRKHFPFFRTAPEGWKNTVRHNLCFRDSFEKVPVSMQGGASTRPRSCLWKLTEEGHRRFAEEARALASTRLESIQQCMSQPDVMPFLFDL
Take B2: the “Z score of condensed fraction” value was -0.3141.

B3: FOXR2 (protein, UniProt Q6PJQ5 1-311, looked up)
Forkhead box protein R2: MDLKLKDCEFWYSLHGQVPGLLDWDMRNELFLPCTTDQCSLAEQILAKYRVGVMKPPEMPQKRRPSPDGDGPPCEPNLWMWVDPNILCPLGSQEAPKPSGKEDLTNISPFPQPPQKDEGSNCSEDKVVESLPSSSSEQSPLQKQGIHSPSDFELTEEEAEEPDDNSLQSPEMKCYQSQKLWQINNQEKSWQRPPLNCSHLIALALRNNPHCGLSVQEIYNFTRQHFPFFWTAPDGWKSTIHYNLCFLDSFEKVPDSLKDEDNARPRSCLWKLTKEGHRRFWEETRVLAFAQRERIQECMSQPELLTSLFDL
On to B3, for which the “Z score of condensed fraction” value was -0.6086.

B4: FOXM1 (protein, UniProt O08696 1-760, looked up)
Forkhead box protein M1: MRTSPRRPLILKRRRLPLPVQNAPSETSEEEAKRSPAQPEPAPAQASQEVAESSSCKFPAGIKIINHPTTPNTQVVAIPSNADIQSIITALTAKGKESGTSGPNRFILISSGGPSSHPSQPQAHSSRDSKRAEVITETLGPKPAAKGVPVPKPPGAPPRQRQESYAGGEAAGCTLDNSLTNIQWLGKMSSDGLGPCSVKQELEEKENCHLEQNRVKVEEPSGVSTSWQDSVSERPPYSYMAMIQFAINSTERKRMTLKDIYTWIEDHFPYFKHIAKPGWKNSIRHNLSLHDMFVRETSANGKVSFWTIHPSANRHLTLDQVFKPLEPGSPQSPEHLESQQKRPNPELHRNVTIKTEIPLGARRKMKPLLPRVSSYLEPIQFPVNQSLVLQPSVKVPFRLAASLMSSELARHSKRVRIAPKVLLSSEGIAPLPATEPPKEEKPLLGGEGLLPLLPIQSIKEEEMQPEEDIAHLERPIKVESPPLEEWPSPCASLKEELSNSWEDSSCSPTPKPKKSYCGLKSPTRCVSEMLVTKRREKREVSRSRRKQHLQPPCLDEPDLFFPEDSSTFRPAVELLAESSEPAPHLSCPQEEGGPFKTPIKETLPVSSTPSKSVLSRDPESWRLTPPAKVGGLDFSPVRTPQGAFGLLPDSLGLMELNTTPLKSGPLFDSPRELLNSEPFDLASDPFGSPPPPHVEGPKPGSPELQIPSLSANRSLTEGLVLDTMNDSLSKILLDISFPGLEEDPLGPDNINWSQFIPELR
As for B4, the “Z score of condensed fraction” value was 2.036.

B5: FOXP4 (protein, UniProt Q8IVH2 1-680, looked up)
Forkhead box protein P4: MMVESASETIRSAPSGQNGVGSLSGQADGSSGGATGTTASGTGREVTTGADSNGEMSPAELLHFQQQQALQVARQFLLQQASGLSSPGNNDSKQSASAVQVPVSVAMMSPQMLTPQQMQQILSPPQLQALLQQQQALMLQQLQEYYKKQQEQLHLQLLTQQQAGKPQPKEALGNKQLAFQQQLLQMQQLQQQHLLNLQRQGLVSLQPNQASGPLQTLPQAAVCPTDLPQLWKGEGAPGQPAEDSVKQEGLDLTGTAATATSFAAPPKVSPPLSHHTLPNGQPTVLTSRRDSSSHEETPGSHPLYGHGECKWPGCETLCEDLGQFIKHLNTEHALDDRSTAQCRVQMQVVQQLEIQLAKESERLQAMMAHLHMRPSEPKPFSQPLNPVPGSSSFSKVTVSAADSFPDGLVHPPTSAAAPVTPLRPPGLGSASLHGGGPARRRSSDKFCSPISSELAQNHEFYKNADVRPPFTYASLIRQAILETPDRQLTLNEIYNWFTRMFAYFRRNTATWKNAVRHNLSLHKCFVRVENVKGAVWTVDEREYQKRRPPKMTGSPTLVKNMISGLSYGALNASYQAALAESSFPLLNSPGMLNPGSASSLLPLSHDDVGAPVEPLPSNGSSSPPRLSPPQYSHQVQVKEEPAEAEEDRQPGPPLGAPNPSASGPPEDRDLEEELPGEELS
For the molecule B5, the “Z score of condensed fraction” value was 0.7085.

B6: FOXN2 (protein, UniProt P32314 1-431, looked up)
Forkhead box protein N2: MGPVIGMTPDKRAETPGAEKIAGLSQIYKMGSLPEAVDAARPKATLVDSESADDELTNLNWLHESTNLLTNFSLGSEGLPIVSPLYDIEGDDVPSFGPACYQNPEKKSATSKPPYSFSLLIYMAIEHSPNKCLPVKEIYSWILDHFPYFATAPTGWKNSVRHNLSLNKCFQKVERSHGKVNGKGSLWCVDPEYKPNLIQALKKQPFSSASSQNGSLSPHYLSSVIKQNQVRNLKESDIDAAAAMMLLNTSIEQGILECEKPLPLKTALQKKRSYGNAFHHPSAVRLQESDSLATSIDPKEDHNYSASSMAAQRCASRSSVSSLSSVDEVYEFIPKNSHVGSDGSEGFHSEEDTDVDYEDDPLGDSGYASQPCAKISEKGQSGKKMRKQTCQEIDEELKEAAGSLLHLAGIRTCLGSLISTAKTQNQKQRKK
Consider B6, for which the “Z score of condensed fraction” value is -0.402.

B7: FOXI2 (protein, UniProt Q6ZQN5 1-318, looked up)
Forkhead box protein I2: MATYCDDLGPSSAPPGQAQATAHPPGYEPGDLGAVGGGPLLWVNAPALSPKSYASGPGPAPPYAAPSYGAPGPLLGAPGGLAGADLAWLSLSGQQELLRLVRPPYSYSALIAMAIQSAPLRKLTLSQIYQYVAGNFPFYKRSKAGWQNSIRHNLSLNDCFKKVPRDEDDPGKGNYWTLDPNCEKMFDNGNFRRKRKRRAEASAAVRSGARSVGGAEAPALEPPSAACLDLQASPSPSAPEAATCFSGFASAMSALAGGLGTFPGGLAGDFSFGRRPPTVATHAPQTLNPSPGFAPGHQTAAAGFRLSHLLYSREGTEV
Turning to B7, the “Z score of condensed fraction” value is recorded as -0.5391.

B8: FOXI1 (protein, UniProt Q12951 1-378, looked up)
Forkhead box protein I1: MSSFDLPAPSPPRCSPQFPSIGQEPPEMNLYYENFFHPQGVPSPQRPSFEGGGEYGATPNPYLWFNGPTMTPPPYLPGPNASPFLPQAYGVQRPLLPSVSGLGGSDLGWLPIPSQEELMKLVRPPYSYSALIAMAIHGAPDKRLTLSQIYQYVADNFPFYNKSKAGWQNSIRHNLSLNDCFKKVPRDEDDPGKGNYWTLDPNCEKMFDNGNFRRKRKRKSDVSSSTASLALEKTESSLPVDSPKTTEPQDILDGASPGGTTSSPEKRPSPPPSGAPCLNSFLSSMTAYVSGGSPTSHPLVTPGLSPEPSDKTGQNSLTFNSFSPLTNLSNHSGGGDWANPMPTNMLSYGGSVLSQFSPHFYNSVNTSGVLYPREGTEV
Turning to B8, the “Z score of condensed fraction” value is -1.1314.

B9: AIOLOS (protein, UniProt Q9UKT9 1-509, looked up)
Zinc finger protein Aiolos: MEDIQTNAELKSTQEQSVPAESAAVLNDYSLTKSHEMENVDSGEGPANEDEDIGDDSMKVKDEYSERDENVLKSEPMGNAEEPEIPYSYSREYNEYENIKLERHVVSFDSSRPTSGKMNCDVCGLSCISFNVLMVHKRSHTGERPFQCNQCGASFTQKGNLLRHIKLHTGEKPFKCHLCNYACQRRDALTGHLRTHSVEKPYKCEFCGRSYKQRSSLEEHKERCRTFLQSTDPGDTASAEARHIKAEMGSERALVLDRLASNVAKRKSSMPQKFIGEKRHCFDVNYNSSYMYEKESELIQTRMMDQAINNAISYLGAEALRPLVQTPPAPTSEMVPVISSMYPIALTRAEMSNGAPQELEKKSIHLPEKSVPSERGLSPNNSGHDSTDTDSNHEERQNHIYQQNHMVLSRARNGMPLLKEVPRSYELLKPPPICPRDSVKVINKEGEVMDVYRCDHCRVLFLDYVMFTIHMGCHGFRDPFECNMCGYRSHDRYEFSSHIARGEHRALLK
On to B9, for which the “Z score of condensed fraction” value is given as 0.5203.

B10: FOXO3 (protein, UniProt O43524 1-673, looked up)
Forkhead box protein O3: MAEAPASPAPLSPLEVELDPEFEPQSRPRSCTWPLQRPELQASPAKPSGETAADSMIPEEEDDEDDEDGGGRAGSAMAIGGGGGSGTLGSGLLLEDSARVLAPGGQDPGSGPATAAGGLSGGTQALLQPQQPLPPPQPGAAGGSGQPRKCSSRRNAWGNLSYADLITRAIESSPDKRLTLSQIYEWMVRCVPYFKDKGDSNSSAGWKNSIRHNLSLHSRFMRVQNEGTGKSSWWIINPDGGKSGKAPRRRAVSMDNSNKYTKSRGRAAKKKAALQTAPESADDSPSQLSKWPGSPTSRSSDELDAWTDFRSRTNSNASTVSGRLSPIMASTELDEVQDDDAPLSPMLYSSSASLSPSVSKPCTVELPRLTDMAGTMNLNDGLTENLMDDLLDNITLPPSQPSPTGGLMQRSSSFPYTTKGSGLGSPTSSFNSTVFGPSSLNSLRQSPMQTIQENKPATFSSMSHYGNQTLQDLLTSDSLSHSDVMMTQSDPLMSQASTAVSAQNSRRNVMLRNDPMMSFAAQPNQGSLVNQNLLHHQHQTQGALGGSRALSNSVSNMGLSESSSLGSAKHQQQSPVSQSMQTLSDSLSGSSLYSTSANLPVMGHEKFPSDLDLDMFNGSLECDMESIIRSELMDADGLDFNFDSLISTQNVVGLNVGNFTGAKQASSQSWVPG
As to B10, the “Z score of condensed fraction” value is reported as -0.5303.

B11: FOXS1 (protein, UniProt O43638 1-330, looked up)
Forkhead box protein S1: MQQQPLPGPGAPTTEPTKPPYSYIALIAMAIQSSPGQRATLSGIYRYIMGRFAFYRHNRPGWQNSIRHNLSLNECFVKVPRDDRKPGKGSYWTLDPDCHDMFEHGSFLRRRRRFTRQTGAEGTRGPAKARRGPLRATSQDPGVPNATTGRQCSFPPELPDPKGLSFGGLVGAMPASMCPATTDGRPRPPMEPKEISTPKPACPGELPVATSSSSCPAFGFPAGFSEAESFNKAPTPVLSPESGIGSSYQCRLQALNFCMGADPGLEHLLASAAPSPAPPTPPGSLRAPLPLPTDHKEPWVAGGFPVQGGSGYPLGLTPCLYRTPGMFFFE
With B11, the “Z score of condensed fraction” value is recorded as 2.025.
